Laboratory results taken from patent US7879571B2, “Population based assessments and means to rank the relative immunogenicity of proteins” (Danisco US Inc., priority 2003, dated 2011).
“Also recorded” adds a separate entry of the source.

What was measured:
[1] = tested on: 18 different HLA-DR and -DQ proteins; test: HLA class II peptide binding competition assay, panel of 18 alleles; design: species or system human; conditions: good binders: IC50 less than 500 nM
Protocol: FIG. 17 provides a table showing the IC50 binding values for epitope peptides identified in bacterial proteases by the I-MUNE® assay system of the present invention. Values less than 500 nM are considered to be good binders and are highlighted in bold in the Table. Degeneracy indicates the number of HLA class II proteins that bind with an IC50 of less than 500 nM out of the 18 total alleles tested.
In addition to the above I-MUNE® assay, peptide binding assays were also performed. The peptide binding assay used during the development of the present invention is known in the art (Southwood et al., J. Immunol., 160:3363-3373 [1998]). Briefly, HLA-DR and -DQ molecules were purified from a panel of EBV transformed cell lines. A competition assay was performed with a characterized standard peptide, and the unknown peptide. The amount of unknown peptide required to compete 50% of the standard peptide binding was then determined (indicated as the IC50).
The IC50 for HLA class II protein binding was determined for peptide epitopes defined by the in two related industrial bacterial proteases (See, FIG. 17). The peptides were tested in a competition assay for binding to 18 different HLA-DR and -DQ proteins. […] This likely explains the association seen in the data for a response to this peptide with HLA-DR6(13) donors (p=0.00015; relative risk=7.22, n=113 donors tested). […]

[2] = tested on: CD4+ T-cells; test: I-MUNE assay: CD4+ T-cell proliferation with dendritic cells and 15-mer peptides offset by 3 amino acids, community donors; conditions: for Background % / Structure Value / Response/Peptide: Table 3; for Response/Peptide: donors with SI>2.95 per peptide; for Background +/- sd / Responses/peptide found: Table 5
Protocol: Peptides were resuspended in DMSO at approximately 1 to 2 mg/ml, and stored at −70° C. prior to use. Each peptide was tested at least in duplicate, although for small peptide sets (e.g., Ber e 1), the peptides were routinely tested in triplicate.
Volunteer donor human blood buffy coat samples were obtained from two commercial sources (Stanford Blood Center, Palo Alto, Calif., and the Sacramento Medical Foundation, Sacramento, Calif.). Buffy coat samples were further purified by density separation. Each sample was HLA typed for HLA-DR and HLA-DQ using a commercial PCR-based kit (Bio-Synthesis).
Monocytes were purified by adherence to plastic in AIM V medium (Gibco/Life Technologies). Adherent cells were cultured in AIM V media containing 500 units/ml of recombinant human IL-4 (Endogen) and 800 units/ml recombinant human GM-CSF (Endogen) for 5 days. On day 5, recombinant human IL-1α (Endogen) and recombinant human TNF-α (Endogen) were added to 50 units/ml and 0.2 units/ml, respectively. On day 7, the fully matured dendritic cells were treated with 50 ug/ml mitomycin C (Sigma) for 1 hour at 37° C. Treated dendritic cells were dislodged with 50 mM EDTA in PBS, washed in AIM V medium, counted, and resuspended in AIM V media at 2×10^5 cells/ml.
CD4^+ T-cells were purified by negative selection from frozen aliquots of human peripheral blood mononuclear cells (PBMC) using Cellect CD4 columns (Cedarlane). CD4^+ T-cell populations were routinely >80% pure and >95% viable as judged by trypan blue (Sigma) exclusion. CD4^+ T-cells were resuspended in AIM V media at 2×10^6 cells per ml.
CD4^+ T-cells and dendritic cells were plated in round-bottomed 96 well format plates at 100 ul of each cell mix per well. Peptide was added to a final concentration of approximately 5 ug/ml in 0.25-0.5% DMSO. Control wells contained 0.5% DMSO without added peptide. Each peptide was tested in duplicate. Cultures were incubated at 37° C., in 5% CO2 for 5 days. On day 5, 0.5 uCi of tritiated thymidine (NEN DuPont,) was added to each well. On day 6, the cultures were harvested onto glass fiber mats using a TomTec manual harvester (TomTec), then processed for scintillation counting. Proliferation was assessed by determining the average counts per minute (CPM) value for each set of duplicate wells (TriLux Beta).
For each individual buffy coat sample, the average CPM values for all of the peptides were analyzed. The average CPM values for each peptide were divided by the average CPM value for the control (DMSO only) wells to determine the “stimulation index” (SI). Donors were tested with each peptide set until an average of at least two responses per peptide were compiled. The data for each protein was graphed showing the percent responders to each peptide within the set. A positive response was collated if the SI value was equal to or greater than 2.95. This value was chosen as it approximates a difference of three standard deviations in a normal population distribution. For each protein assessed, positive responses to individual peptides by individual donors were compiled. To determine the background response for a given protein, the percent responders for each peptide in the set were averaged and a standard deviation was calculated. SI values for each donor were compiled for each peptide set, and the percent of responders reported.

[3] = tested on: PBMC; test: Maximum proliferative response of PBMC from 30 community donors to inactivated whole protein; format: cell-based, human; conditions: inactivated enzymes, 5 to 40 ug/ml, 30 donors; p<0.01; listed as protease variant
Protocol: FIG. 9 provides a graph showing the maximum proliferative responses of PBMC from 30 community donors to BPN′ Y217L (open triangles, structure value=0.53) and the […] BPN′ Y217L variant (closed squares, structure value=0.40). Each donor's maximum response is shown on the y-axis. An SI of 2.0 was the cut-off for a “positive” response. The difference in proliferative responses between BPN′ Y217L and the variant was p<0.01.
In these experiments, PMBC from thirty community donors were tested parametrically with either the whole protein parent enzyme (BPN′ Y217L) or the variant protease. The enzymes were inactivated, and tested over a dose range from 5 to 40 ug/ml. […] The difference between optimal SI values for the two proteins tested on these thirty donors was significant, with a two-tailed parametric t-test value of p<0.01.

Row | Molecule | Background % [2] [%] | Structure Value [2] | Response/Peptide [2] | further results
1 | BPN' Y217L #24: 15-mer epitope peptide number 24 of BPN′ Y217L, first epitope (amino acids 70-84) (GTVAALNNSIGVLGV; UniProt P00782 177-191, looked up, fragment) |  |  |  | HLA class II binding (in words) [1]: binds most HLA class II molecules tested
2 | BPN' Y217L#37: 15-mer epitope peptide number 37 of BPN′ Y217L, second epitope (amino acids 109-123) (NGIEWAIANNMDVIN; UniProt P00782 216-230, looked up, fragment) |  |  |  | HLA class II binding (in words) [1]: promiscuous
3 | E6 18: human papillomavirus E6 protein, HPV strain 18 | 4.23 | 0.79 | 2.32 | Background response in words (compared with the 11 industrial enzymes) [2]: not significantly different; Background +/- sd [2]: 4.23 +/− 4.25; Responses/peptide found [2]: 2.32
4 | E7 16: HPV E7 protein, HPV strain 16 | 4.33 | 0.66 | 3.9 | 
5 | E7 18: HPV E7 protein, HPV strain 18 | 3.55 | 0.44 | 3.19 | 
6 | hTpo: human thrombopoietin, a cytokine whose expression is restricted to the bone marrow |  |  |  | Structure value in words [2]: comparatively high; Background +/- sd [2]: 2.54 +/− 2.23
7 | E6 16: human papillomavirus E6 protein, HPV strain 16 (protein, UniProt P03126 1-158, looked up) Protein E6: MHQKRTAMFQDPQERPRKLPQLCTELQTTIHDIILECVYCKQQLLRREVYDFAFRDLCIVYRDGNPYAVCDKCLKFYSKISEYRHYCYSLYGTTLEQQYNKPLCDLLIRCINCQKPLCPEEKQRHLDKKQRFHNIRGRWTGRCMSCCRSSRTRRETQL | 7.12 | 0.72 | 3.92 | Background response in words (compared with the 11 industrial enzymes) [2]: significantly higher; Background +/- sd [2]: 7.12 +/− 6.48; Responses/peptide found [2]: 3.92
8 | BPN′ variant: BPN′ Y217L variant where prominent responses to amino acids 70-84 and 109-123 were reduced to background level (protein, UniProt P00782 108-382, looked up, variant Y217L) Subtilisin BPN': AQSVPYGVSQIKAPALHSQGYTGSNVKVAVIDSGIDSSHPDLKVAGGASMVPSETNPFQDNNSHGTHVAGTVAALNNSIGVLGVAPSASLYAVKVLGADGSGQYSWIINGIEWAIANNMDVINMSLGGPSGSAALKAAVDKAVASGVVVVAAAGNEGTSGSSSTVGYPGKYPSVIAVGAVDSSNQRASFSSVGPELDVMAPGVSIQSTLPGNKYGALNGTSMASPHVAGAAALILSKHPNWTNTQVRSSLENTTTKLGDSFYYGKGLINVQAAAQ |  |  |  | Proliferation compared with the parent protein (in words) [3]: significantly less proliferation; also recorded: induced less proliferation; Prominent Epitope ([2]; Table 4, number of prominent epitopes): 0; Structure value of variant ([2]; calculated from the 113-donor dataset with responses to 70-84 and 109-123 reduced to background levels): 0.40
9 | ALCALASE ®: ALCALASE® enzyme, commercially available from Novo; Swissprot accession number P00780 (protein, UniProt P00780 106-379, looked up) Subtilisin Carlsberg: AQTVPYGIPLIKADKVQAQGFKGANVKVAVLDTGIQASHPDLNVVGGASFVAGEAYNTDGNGHGTHVAGTVAALDNTTGVLGVAPSVSLYAVKVLNSSGSGSYSGIVSGIEWATTNGMDVINMSLGGASGSTAMKQAVDNAYAKGVVVVAAAGNSGSSGNTNTIGYPAKYDSVIAVGAVDSNSNRASFSSVGAELEVMAPGAGVYSTYPTNTYATLNGTSMASPHVAGAAALILSKHPNLSASQVRNRLSSTATYLGSSFYYGKGLINVEAAAQ |  |  |  | Prominent responses (amino acids / peptide positions) ([2]; regions of the protein sequence): 19-33
10 | E6 31: human papillomavirus E6 protein, HPV strain 31 (protein, UniProt P17386 1-149, looked up) Protein E6: MFKNPAERPRKLHELSSALEIPYDELRLNCVYCKGQLTETEVLDFAFTDLTIVYRDDTPHGVCTKCLRFYSKVSEFRWYRYSVYGTTLEKLTNKGICDLLIRCITCQRPLCPEEKQRHLDKKKRFHNIGGRWTGRCIACWRRPRTETQV | 4.66 | 0.53 | 3.26 | 
11 | E6 33: human papillomavirus E6 protein, HPV strain 33 (protein, UniProt P06427 1-149, looked up) Protein E6: MFQDTEEKPRTLHDLCQALETTIHNIELQCVECKKPLQRSEVYDFAFADLTVVYREGNPFGICKLCLRFLSKISEYRHYNYSVYGNTLEQTVKKPLNEILIRCIICQRPLCPQEKKRHVDLNKRFHNISGRWAGRCAACWRSRRRETAL | 2.83 | 0.68 | 1.97 | 
12 | E7 31: HPV E7 protein, HPV strain 31 (protein, UniProt P17387 1-98, looked up) Protein E7: MRGETPTLQDYVLDLQPEATDLHCYEQLPDSSDEEDVIDSPAGQAEPDTSNYNIVTFCCQCKSTLRLCVQSTQVDIRILQELLMGSFGIVCPNCSTRL | 5.26 | 0.78 | 3.1 | 
13 | E7 33: HPV E7 protein, HPV strain 33 (protein, UniProt P06429 1-97, looked up) Protein E7: MRGHKPTLKEYVLDLYPEPTDLYCYEQLSDSSDEDEGLDRPDGQAQPATADYYIVTCCHTCNTTVRLCVNSTASDLRTIQQLLMGTVNIVCPTCAQQ | 4.32 | 0.54 | 2.55 | 
14 | E7 45: HPV E7 protein, HPV strain 45 (protein, UniProt P21736 1-106, looked up) Protein E7: MHGPRETLQEIVLHLEPQNELDPVDLLCYEQLSESEEENDEADGVSHAQLPARRAEPQRHKILCVCCKCDGRIELTVESSAEDLRTLQQLFLSTLSFVCPWCATNQ | 3.75 | 0.76 | 2.44 | 
15 | sTNFR1: soluble tumor necrosis factor receptor 1, a soluble recombinant cytokine receptor molecule (protein, UniProt P19438 30-211, looked up, extracellular domain) extracellular domain: LVPHLGDREKRDSVCPQGKYIHPQNNSICCTKCHKGTYLYNDCPGPGQDTDCRECESGSFTASENHLRHCLSCSKCRKEMGQVEISSCTVDRDTVCGCRKNQYRHYWSENLFQCFNCSLCLNGTVHLSCQEKQNTVCTCHAGFFLRENECVSCSNCKKSLECTKLCLPQIENVKGTEDSGTT |  |  |  | Background +/- sd [2]: 2.23 +/− 1.95
